In patent US12655454B2, “Process for producing formate using oxygen-tolerant enzymes” (GWANGJU INSTITUTE OF SCIENCE AND TECHNOLOGY, priority 2022, dated 2026):

Substrate: NC(=O)C1=CN([C@@H]2O[C@H](COP(=O)(O)OP(=O)(O)OC[C@H]3O[C@@H](n4cnc5c(N)ncnc54)[C@H](O)[C@@H]3O)[C@@H](O)[C@H]2O)C=CC1
Experiment: NADH-dependent CO2 reduction kinetics of RcFDH (Michaelis-Menten)
Format: biochemical, Rhodobacter capsulatus
Details: Kpi buffer pH 7.0, absorbance at 365 nm
Protocol: To construct the Strep-Tag II-fused Rhodobacter capsulatu-derived formate dehydrogenase (RcFDH) expression plasmid, pTrcHis-RcFDH was used as a template. […] was performed to substitute the hexahistidine-tag for strep tag II. pTrcHis-RcFDH was amplified by PCR with the in-fusion primer (FW: SEQ ID NO: 9, RV: SEQ ID NO: 10). The PCR product was mixed with 5× In-Fusion HD Enzyme Premix to generate pTrcHis-strep-RcFDH. The E. coli MC1061 strain was transformed with pTrcHis-Strep-RcFDH, and R. eutropha HF210 [pGE771] strain was used as the Ralstonia eutropha-derived hydrogenase (ReSH)-expressing strain.
The enzyme reaction kinetics of RcFDH were measured for NADH-dependent reduction of CO2 to formate in the presence or absence of O2. The sealing cuvette was filled with 900 μL of Kpi buffer containing NADH and sealed; then, 100% CO2 and a mixed gas consisting of 4% O2 and 96 N2 (or 100% N2 for anaerobic conditions) were injected simultaneously for 30 min at 10 mL/min, respectively. RcFDH (2 mL, 2 μM) was purged with 10 mL/min N2 gas bubbling in a 10 mL sealing vial for 30 min to remove O2 from the air. The reaction was initiated by mixing 100 μL of 2 μM RcFDH with a gas-saturated solution in the sealing cuvette. The final concentration of NADH was varied from 0 to 1 mM.
All measurements were performed in triplicate based on the change in the absorbance at 365 nm in the cuvette, measured using a T60 UV-Vis spectrophotometer (PG Instruments Ltd, Lutterworth, UK). The change in the absorbance over 1 min was plotted using the Michaelis-Menten equation to calculate the kinetic parameters.
The present inventor investigated the enzymatic activities of ReSH and RcFDH in the presence or absence of O2. The NAD^+-dependent H2 oxidation reaction rate by ReSH was measured, and the Michaelis-Menten curve was fitted to calculate the kinetic parameters using Origin 2022 program (FIG. 3A). […] Similarly, the NADH-dependent CO2 reduction reaction rate by RcFDH was measured, and the Michaelis-Menten curve was fitted to calculate the kinetic parameters (FIG. 3B).

[1] = other: 0% O2, NADH varied 0 to 1 mM
[2] = other: 2% O2, NADH varied 0 to 1 mM

B1: Strep-Tag II-fused Rhodobacter capsulatus-derived formate dehydrogenase (RcFDH), SEQ ID NO: 6 to SEQ ID NO: 8 (Rhodobacter capsulatus SB 1003) (protein)
chain 1: MKIWLPCDAAAKACGAEAVLAALRLEAEKRGGALDIARNGSRGMIWLEPLLEVETPAGRIGFGPMTPADVPALFDALESHPKALGLVEEIPFFKRQTRLTFARCGRIEPLSLAQFAAAEGWAGLRKALKMTPAEVVEEVLASGLRGRGGAGFPTGIKWRTVAAAQADQKYIVCNVDEGDSGSFADRMLIEGDPFCLVEGMAIAGHAVGATRGYVYIRSEYPDAIAVMRAAIAMAKPFLAEAGFEMEVRVGAGAYVCGEETSLLNSLEGKRGTVRAKPPLPALKGLFGKPTVVNNLLSLAAVPWIIAHGAKAYESFGMDRSRGTIPLQIGGNVKRGGLFETGFGITLGELVEDICGGTASGRPVKAVQVGGPLGAYHPVSDYHLPFCYEQFAGQGGLVGHAGLVVHDDTADMLKLARFAMEFCAIESCGTCTPCRIGAVRGVEVIDRIAAGDASAMPLLDDLCQTMKLGSLCALGGFTPYPVQSAIRHFPADFPCAREAAE
chain 2: MKDLIIPPLDWTQDMGTPKREGAPVHLTIDGVEVTVPAGTSVLRAAAEAGISIPKLCATDNVEPVGSCRLCMVEIEGMRGTPTSCTTPVAPGMRVHTQTPQLQKLRRGVMELYISDHPLDCLTCAANGDCELQDMAGAVGLREVRYQAKDTHFARRDATGPNPRYIPKDNSNPYFSYDPAKCIVCMRCVRACEEVQGTFALTVMGRGFDARISPAAPDFLSSDCVSCGACVQACPTATLVEKSVERIGTPERKVVTTCAYCGVGCSFEAHMLGDQLVRMVPWKGGAANRGHSCVKGRFAYGYATHQDRILKPMIRDKITDPWREVNWTEALDFTATRLRALRDSHGADALGVITSSRCTNEETYLVQKLARAVFGTNNTDTCARVCHSPTGYGLKQTFGTSAGTQDFDSVEETDLALVIGANPTDGHPVFASRLRKRLRAGAKLIVVDPRRIDLLNTPHRGEAWHLQLKPGTNVAVMTAMAHVIVTEQIFDKRFIGDRCDWDEWADYAEFVANPEYAPEAVESLTGVPAGLLRQAARAYAAAPNAAIYYGLGVTEHSQGSTTVIAIANLAMMTGNIGRPGVGVNPLRGQNNVQGSCDMGSFPHEFPGYRHVSDDATRGLFERTWGVTLSSEPGLRIPNMLDAAVEGRFKALYVQGEDILQSDPDTRHVSAGLAAMDLVIVHDLFLNETANYAHVFLPGSTFLEKDGTFTNAERRINRVRRVMAPKAGFADWEVTQMLANALGAGWHYTHPSEIMAEIAATTPGFAAVTYEMLDARGSVQWPCNEKAPEGSPIMHVEGFVRGKGRFIRTAYLPTDEKTGPRFPLLLTTGRILSQYNVGAQTRRTENTVWHGEDRLEIHPTDAETRGIRDGDWVRLASRAGETTLRATVTDRVSPGVVYTTFHHPDTQANVVTTDTSDWATNCPEYKVTAVQVAASNGPSDWQQDYAAQAAAARRIEAAE
[1]
  Km: 166 ± 30 µM
  kcat: 0.703 ± 0.043 s⁻¹
[2]
  Km: 141 ± 22 µM
  kcat: 0.699 ± 0.035 s⁻¹
